The labels stand for the following.
T1: His-tagged P3028 peptide (PGE73) (human)
T1 construct: albumin-derived peptide, in solution at 0.5 ug/mL; not shown: His-tag
T1 peptide: VFDEFKPLVEEPQNLIK

T2: His-tagged P3028 peptide (PGE73) (human)
T2 construct: also called His-tag-P3028; not shown: His-tag
T2 peptide: VFDEFKPLVEEPQNLIK

Here are results for 47 molecules from patent publication US20170298096A1 (CANIMGUIDE THERAPEUTICS, published 2017).

The target of one experiment is T1, His-tagged P3028 peptide (PGE73). As to the kind of experiment: PEPSCAN ELISA, peptide on card. (In general: ELISA stands for enzyme-linked immunosorbent assay.)
As to KKLDTFFVKLSLFTEY [SEQ ID NO: 393 KKLDTFFVKLSLFTEY], the “RAMPO Score” value came to 311.

The target of another experiment is T2, His-tagged P3028 peptide (PGE73). Kind of experiment: PEPSCAN ELISA; peptide on card, His-tagged P3028 in solution.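 Note: bound protein detected by peroxidase colour with ABTS substrate, imaged on the peptide card by CCD camera at 405 nm, rampo units being raw OD405 readings.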
Procedure: After washing, the peroxidase substrate 2,2′-azine-di-3-ethylbenzthiazoline sulfonate (ABTS) and 2 μL of 3% H2O2 were added. The binding capacity of the mAb was measured as a color development at 405 nm (optical density, OD405). The color development was quantified with a charge-coupled device (CCD)—camera and an image processing system.
The OD405-values obtained by a CCD-camera was considered as raw data values (“rampo values,” “rampo units,” or “rampo scores”). […] First the CCD-camera made a picture of the card before peroxidase coloring and then again a picture after the peroxidase coloring. […] These values were copied into an excel file and labeled as a raw data file. One follow-up manipulation was allowed. Sometimes a well can contain an air-bubble resulting in a false-positive value. If manual inspection of the cards detect an air-bubble the value are set to 0 for that well.
For KKLDTFFWKLSLFTER (P28R variant on PEPSCAN card) [SEQ ID NO: 537], the “RAMPO Score” value was 228 rampo units.

Turning to KKLDTFFNKLSLFTER (P28R variant on PEPSCAN card) [SEQ ID NO: 550], the “RAMPO Score” value is 203 rampo units.

Turning to KKLDTFFYKLSLFTER (P28R variant on PEPSCAN card) [SEQ ID NO: 549], the “RAMPO Score” value was 211 rampo units.

Take KKLDTFFSKLSLFTER (P28R variant on PEPSCAN card) [SEQ ID NO: 545]: the “RAMPO Score” value worked out at 216 rampo units.

On to KKLDTFFMKLSLFTER (P28R variant on PEPSCAN card) [SEQ ID NO: 540], for which the “RAMPO Score” value is 221 rampo units.

For the molecule KKLDTFFHKLSLFTER (P28R variant on PEPSCAN card) [SEQ ID NO: 547], the “RAMPO Score” value was 213 rampo units.

For the molecule KKLDTFFDKLSLFTER (P28R variant on PEPSCAN card) [SEQ ID NO: 574], the “RAMPO Score” value amounted to 122 rampo units.

KKLDTFFEKLSLFTER (P28R variant on PEPSCAN card) [SEQ ID NO: 570]: the “RAMPO Score” value was 139 rampo units.

As for KKLDTFFVKLSLFTEP (P28R variant on PEPSCAN card) [SEQ ID NO: 533], the “RAMPO Score” value is 234 rampo units.

With KKLDTFFVKLSLFTEC (P28R variant on PEPSCAN card) [SEQ ID NO: 559], the “RAMPO Score” value was 175 rampo units.

Consider KKLDTFFVKLSLFTEE (P28R variant on PEPSCAN card) [SEQ ID NO: 577], for which the “RAMPO Score” value amounted to 107 rampo units.

With KKLDTFFVKLSLFTEA (P28R variant on PEPSCAN card) [SEQ ID NO: 538], the “RAMPO Score” value worked out at 226 rampo units.

For KKLDTFFVKLSLFTEG (P28R variant on PEPSCAN card) [SEQ ID NO: 543], the “RAMPO Score” value worked out at 218 rampo units.

Turning to KKLDTFFVKLSLFTEQ (P28R variant on PEPSCAN card) [SEQ ID NO: 573], the “RAMPO Score” value was 133 rampo units.

Consider KKLDTFFVKLSLFTEW (P28R variant on PEPSCAN card) [SEQ ID NO: 551], for which the “RAMPO Score” value came to 202 rampo units.

As to KKLDTFFVKLSLFTES (P28R variant on PEPSCAN card) [SEQ ID NO: 557], the “RAMPO Score” value amounted to 184 rampo units.

As for KKLDTFFVKLSLFTEI (P28R variant on PEPSCAN card) [SEQ ID NO: 558], the “RAMPO Score” value amounted to 176 rampo units.

Take KKLDTFFVKLSLFTED (P28R variant on PEPSCAN card) [SEQ ID NO: 572]: the “RAMPO Score” value stood at 133 rampo units.

With KKLDTFFVKLSLFTEL (P28R variant on PEPSCAN card) [SEQ ID NO: 544], the “RAMPO Score” value was determined as 217 rampo units.

As for CKLDTFFVKLSLFTER (P28R variant on PEPSCAN card) [SEQ ID NO: 546], the “RAMPO Score” value was 215 rampo units.

For KKLDTFFVKLSLKTER (P28R variant on PEPSCAN card) [SEQ ID NO: 542], the “RAMPO Score” value was 220 rampo units.

For KKLDTFFVKLSLETER (P28R variant on PEPSCAN card) [SEQ ID NO: 579], the “RAMPO Score” value worked out at 98 rampo units.

As for KKLDTFFVKLSLDTER (P28R variant on PEPSCAN card) [SEQ ID NO: 575], the “RAMPO Score” value was 112 rampo units.

For KKLDTFKVKLSLFTER (P28R variant on PEPSCAN card) [SEQ ID NO: 535], the “RAMPO Score” value was found to be 232 rampo units.

For KKLDTFFVYLSLFTER (P28R variant on PEPSCAN card) [SEQ ID NO: 552], the “RAMPO Score” value amounted to 198 rampo units.

As for KKLDTFFVCLSLFTER (P28R variant on PEPSCAN card) [SEQ ID NO: 541], the “RAMPO Score” value is 220 rampo units.

Take KKLDTFFVLLSLFTER (P28R variant on PEPSCAN card) [SEQ ID NO: 562]: the “RAMPO Score” value turned out to be 166 rampo units.

Take KKLDTFFVPLSLFTER (P28R variant on PEPSCAN card) [SEQ ID NO: 534]: the “RAMPO Score” value is 233 rampo units.

Consider KKLDTFFVGLSLFTER (P28R variant on PEPSCAN card) [SEQ ID NO: 98], for which the “RAMPO Score” value came to 188 rampo units.

Consider KKLDTFFVALSLFTER (P28R variant on PEPSCAN card) [SEQ ID NO: 554], for which the “RAMPO Score” value is 191 rampo units.

As for KKLDTFFVGLSLFTER (P28R variant on PEPSCAN card) [SEQ ID NO: 97], the “RAMPO Score” value stood at 188 rampo units.

KKLDTFFVDLSLFTER (P28R variant on PEPSCAN card) [SEQ ID NO: 569]: the “RAMPO Score” value turned out to be 149 rampo units.

On to KKLDTFFVILSLFTER (P28R variant on PEPSCAN card) [SEQ ID NO: 555], for which the “RAMPO Score” value was determined as 190 rampo units.

For the molecule KKLDTFFVFLSLFTER (P28R variant on PEPSCAN card) [SEQ ID NO: 560], the “RAMPO Score” value turned out to be 174 rampo units.

Regarding KKLDTEFVKLSLFTER (P28R variant on PEPSCAN card) [SEQ ID NO: 536], the “RAMPO Score” value turned out to be 229 rampo units.

Regarding KKLDTDFVKLSLFTER (P28R variant on PEPSCAN card) [SEQ ID NO: 553], the “RAMPO Score” value came out at 193 rampo units.

On to KKLDTFFVKLSLFTFR (P28R variant on PEPSCAN card) [SEQ ID NO: 571], for which the “RAMPO Score” value came to 137 rampo units.

On to KKLDTFFVKLSLFTNR (P28R variant on PEPSCAN card) [SEQ ID NO: 566], for which the “RAMPO Score” value was 161 rampo units.

On to KKLDTFFVKLSLFTVR (P28R variant on PEPSCAN card) [SEQ ID NO: 565], for which the “RAMPO Score” value was determined as 163 rampo units.

Consider KKLDTFFVKLSLFTCR (P28R variant on PEPSCAN card) [SEQ ID NO: 556], for which the “RAMPO Score” value came out at 185 rampo units.

As for KKLDTFFVKLSLFTAR (P28R variant on PEPSCAN card) [SEQ ID NO: 561], the “RAMPO Score” value was found to be 174 rampo units.

Take KKLDTFFVKLSLFTTR (P28R variant on PEPSCAN card) [SEQ ID NO: 568]: the “RAMPO Score” value amounted to 152 rampo units.

Take KKLDTFFVKLSLFTWR (P28R variant on PEPSCAN card) [SEQ ID NO: 539]: the “RAMPO Score” value was 226 rampo units.

Consider KKLDTFFVKLSLFTGR (P28R variant on PEPSCAN card) [SEQ ID NO: 101], for which the “RAMPO Score” value worked out at 233 rampo units.

Turning to KKLDTFFVKLSLFTIR (P28R variant on PEPSCAN card) [SEQ ID NO: 564], the “RAMPO Score” value was found to be 163 rampo units.

KKLDTFFVKLSLFTSR (P28R variant on PEPSCAN card) [SEQ ID NO: 563]: the “RAMPO Score” value was 165 rampo units.
